This experiment deals with GAL4-WT1 (WT1 fused to the DNA-binding domain of GAL4) (UniProt P04386). Briefly: cell-based or functional assay.

The source of these data is patent US20020088015A1.

The substance “par-4 expressed from pCMV-par-4 in transfected cells” displayed a WT1-mediated transcriptional repression of pGAL4TKCAT (CAT assay) of 3 fold.
